{
  "source": "paper PMC5659210",
  "about": "“Extending the biocatalytic scope of regiocomplementary flavin-dependent halogenase enzymes” (Chemical Science, 2015)",
  "proteins": {"B1": {"name": "PrnA (Pseudomonas fluorescens) (protein)", "chain": "MNKPIKNIVIVGGGTAGWMAASYLVRALQQQANITLIESAAIPRIGVGEATIPSLQKVFFDFLGIPEREWMPQVNGAFKAAIKFVNWRKSPDPSRDDHFYHLFGNVPNCDGVPLTHYWLRKREQGFQQPMEYACYPQPGALDGKLAPCLSDGTRQMSHAWHFDAHLVADFLKRWAVERGVNRVVDEVVDVRLNNRGYISNLLTKEGRTLEADLFIDCSGMRGLLINQALKEPFIDMSDYLLCDSAVASAVPNDDARDGVEPYTSSIAMNSGWTWKIPMLGRFGSGYVFSSHFTSRDQATADFLKLWGLSDNQPLNQIKFRVGRNKRAWVNNCVSIGLSSCFLEPLESTGIYFIYAALYQLVKHFPDTSFDPRLSDAFNAEIVHMFDDCRDFVQAHYFTTSRDDTPFWLANRHDLRLSDAIKEKVQRYKAGLPLTTTSFDDSTYYETFDYEFKNFWLNGNYYCIFAGLGMLPDRSLPLLQHRPESIEKAEAMFASIRREAERLRTSLPTNYDYLRSLRDGDAGLSRGQRGPKLAAQESL", "notes": "full-length, pET28a (NdeI/NotI), expressed in E. coli Arctic Express, HisTrap purified"}},
  "assay_in_all_cases": "Michaelis-Menten chlorination assay, HPLC, Fre-coupled",
  "format_in_all_cases": "biochemical, Pseudomonas fluorescens",
  "details_in_all_cases": "Fre in excess, 30 °C",
  "key": {"[1]": {"substrate": "Nc1ccccc1C(=O)O", "description": "(§1) Michaelis-Menten chlorination assay, HPLC, Fre-coupled on PrnA"}, "[2]": {"substrate": "N[C@@H](Cc1c[nH]c2ccccc12)C(=O)O", "description": "as §1"}, "[3]": {"substrate": "Nc1ccccc1C(=O)C[C@H](N)C(=O)O", "description": "as §1"}, "[4]": {"substrate": "NC(=O)c1ccccc1N", "description": "as §1"}},
  "data": [
    {"protein": "B1", "values": [
      {"measurement": "Km", "setting": "[1]", "value": "3161 ± 986", "unit": "µM"},
      {"measurement": "kcat", "setting": "[1]", "value": "0.0085 ± 0.00117", "unit": "s⁻¹"},
      {"measurement": "kcat/Km", "setting": "[1]", "value": "2.67 ± 0.833", "unit": "M⁻¹ s⁻¹"},
      {"measurement": "Km", "setting": "[2]", "value": "0.7 ± 0.1", "unit": "µM"},
      {"measurement": "kcat", "setting": "[2]", "value": "0.0183 ± 0.000833", "unit": "s⁻¹"},
      {"measurement": "kcat/Km", "setting": "[2]", "value": "28300 ± 3330", "unit": "M⁻¹ s⁻¹"},
      {"measurement": "Km", "setting": "[3]", "value": "19.0 ± 2.2", "unit": "µM"},
      {"measurement": "kcat", "setting": "[3]", "value": "0.0617 ± 0.00167", "unit": "s⁻¹"},
      {"measurement": "kcat/Km", "setting": "[3]", "value": "3330 ± 167", "unit": "M⁻¹ s⁻¹"},
      {"measurement": "Km", "setting": "[4]", "value": "3267 ± 491", "unit": "µM"},
      {"measurement": "kcat", "setting": "[4]", "value": "0.035 ± 0.00167", "unit": "s⁻¹"},
      {"measurement": "kcat/Km", "setting": "[4]", "value": "11.7 ± 1.67", "unit": "M⁻¹ s⁻¹"}
    ]}
  ]
}
